Measured values taken from US20240254220A1, “COMBINED THERAPY USING ANTI-CD300C ANTIBODY” (CentricsBio, Inc., priority 2021, published 2024).

Key:
CD300a antigen = biological target: T1, CD300a antigen (Homo sapiens, UniProt Q9UGN4); assay: CD300a cross-reactivity binding ELISA; conditions: CD300a antigen 0.039, 0.63, 10 μg/mL
T1 construct: purchased Sino Biological 12449-H08H
T1 sequence (Q9UGN4 18-180 limits assumed): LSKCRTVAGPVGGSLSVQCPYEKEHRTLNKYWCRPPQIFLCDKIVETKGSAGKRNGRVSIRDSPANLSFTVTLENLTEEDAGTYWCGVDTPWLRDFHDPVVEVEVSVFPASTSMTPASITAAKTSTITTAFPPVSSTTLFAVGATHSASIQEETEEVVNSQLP
Experimental: More specifically, the CD300a antigen (from Sino Biological) was used to treat at concentrations of 0.039 μg/mL, 0.63 μg/mL, and 10 μg/mL, and then binding ELISA was performed by the same method as in Experimental Example 2.1.

[1] = system: colon cancer cell line (CT26) tumor; assay: IFN-g ELISPOT of spleen in CT26 syngeneic mouse tumor model; type: in vivo, BALB/c mice; conditions: 25 mg/kg i.p., day 25
Experimental: In order to identify effects of the anti-CD300c monoclonal antibody CL7 on CD8+ T cells under in vivo conditions, syngeneic mouse tumor models were prepared as in Experimental Example 3.2 and administered the anti-CD300c monoclonal antibody at the same concentration. On day 25 after injection, the mice were sacrificed, and spleen were collected from each of six mice in the CL7 25 mg/kg administration group showing a highest antitumor effect compared with the control group. Subsequently, the results were identified by measuring IFN-g through ELISPOT assay. Specifically, the Mouse IFN-g ELISpot kit was purchased from R&D Systems (#EL485), and IFN-g was measured according to the protocol for the kit.

[2] = system: A549 (human lung cancer cell line); assay: A549 cancer cell growth inhibition (CCK-8), CL7 and Imfinzi; type: cell-based; conditions: A549, 0% FBS, 10 μg/mL each, 5 days
Excerpt: In order to identify cancer cell growth inhibitory effects by combined administration of the anti-CD300c monoclonal antibody CL7 and an immunotherapeutic agent, the cancer cell growth inhibitory effects were compared using A549 (human lung cancer cell line) and MDA-MB-231 (human breast cancer cell line). Specifically, the cells were dispensed into a 96-well plate at 2×10^4 cells (A549) or 3×10^4 cells (MDA-MB-231) under 0% fetal bovine serum (FBS) conditions, and at 6×10^3 cells (A549) or 1×10^4 cells (MDA-MB-231) under 0.1% fetal bovine serum conditions. Subsequently, the cells were treated with the anti-CD300c monoclonal antibody and Imfinzi at 10 μg/mL alone or in combination, followed by incubation for 5 days. For a control group, the cells were treated with the same amount of phosphate buffer solution (PBS). Then, the cells were treated with CCK-8 (DOJINDO), and the absorbance was measured at OD 450 nm. The results are shown in FIG. 33 (A549) and FIG. 34 (MDA-MB-231).

[3] = system: colon cancer cell line (CT26) tumor; assay: Tumor volume, complete remission and long-term survival, CT26 model, combined administration; type: in vivo, BALB/c mice; conditions: CL7 25 mg/kg, anti-PD-1 10 mg/kg, anti-CTLA-4 4 mg/kg i.p. D11, D14, D18
Excerpt: Animal breeding and experiments were all conducted in a SPF facility.

B1: CL7: anti-CD300c monoclonal antibody, VH3VL1 phage library, VH SEQ ID 327, VL SEQ ID 328 (antibody, V domains shown)
VH: EVQLLESGGGLVQPGGSLRLSCAASGFTFSRYAMSWVRQAPGKGLEWVSAISGSGGSTYYADSVKGRFTISRDNSKNTLYLQMNSLRAEDTAVYYCARSSQGIFDIWGQGTLVTVSS
VL: QSVLTQPPSASGTPGQRVTISCSGNNIGTRRVHWYQQLPDTAPKLLIYSKNNRPSGVPDRFSGSKSGTSASLAISGLRSEDEADYYCAAWDDSLSGPVFGGGTKLTVL
modifications: CL7 Heavy Chain Variable Region; CL7 Light Chain Variable Region
binding to antigens other than CD300c (CD300a) (CD300a antigen): did not bind to antigens other than CD300c
expression of IFN-g (ELISPOT) [1]: increased
cell growth inhibitory effect compared with control group [2]: 17%
growth of cancer (tumor volume) [3]: inhibited
